Results taken from article PMC11980035.

Biological target: PRC2^amKR: PRC2 with EZH2 K510R, K514R, K515R (am-loop lysines mutated to arginines) (human) (UniProt Q15910)

H3K27me3 generated by PRC2^amKR on mononucleosomes (HMTase assay, western blot) with 400 nM PRC2^CXC added: 50%
Substance: PRC2^CXC: PRC2 with EZH2 K568A/Q570A/K574A/Q575A in the CXC domain, automethylated (from UniProt Q15910-2 1-751; Q15022 80-685; O75530 1-441; Q09028 1-425; Q6ZN18 1-517) (complex)
